Measured values published in patent US20160000910A1 (AC IMMUNE S A, published 2016).

T1: biotinylated Aβ17-40 peptide (biotinylated (position not given))
T1 construct: Peptide from Anaspec
T1 peptide: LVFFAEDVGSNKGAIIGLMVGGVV

B1: mouse monoclonal antibody ACI-11-Ab-9 (antibody, V domains shown)
VH: QVQLQQSDAELVKPGASVKISCKVSGYTFTDHTIHWMKQRPEQGLEWIGYIYPRDGSTKYNEKFKGKATLTADKSSSTAYMQLNSLTSEDSAVYFCARDYGYAFDYWGQGTTLTVSS
VL: QAVVTQESALTTSPGGTVILTCRSSTGAVTTSNYANWVQEKPDHLFTGLIGGTSNRAPGVPVRFSGSLIGDKAALTITGAQTEDDAMYFCALWYSTHYVFGGGTKVTVL
notes: also called clone FG1F9E4; DSM ACC2845
B2: mouse monoclonal antibody ACI-12-Ab-11 (antibody, V domains shown)
VH: B1 VH
VL: B1 VL
notes: also called clone FK2A6A6; DSM ACC2846

What was measured:
[1] = molecular target: T1, biotinylated Aβ17-40 peptide; test: ELISA, biotinylated peptide on streptavidin plate
From the text: (§1) The peptides in the peptide library were composed of 8, 9 or 10-mer aa peptides. A biotinylated complete Aβ1-42 peptide (human sequence) was used as positive control (Bachem, Bubendorf, Switzerland). In addition, longer peptides covering Aβ1-28, Aβ17-40, Aβ1-40 and Aβ1-42 were used to define the broader region to which these antibodies may bind. These 4 peptides were also biotinlyated (manufactured by Anaspec and purchased from ANAWA Trading SA, Switzerland). Epitope mapping was done according to the manufacturer's (Mimotopes) instructions. Briefly, Streptavidin coated plates (NUNC, Roskilde, Denmark) were blocked with 0.1% BSA in PBS overnight at 4° C. After washing with PBS-0.05% Tween 20, plates were coated for 1 hour at RT with the different peptides from the library, diluted in 0.1% BSA, 0.1% Sodium Azide in PBS to a final concentration of 10 μM. […] Plates were washed again and incubated with alkaline phosphatase conjugated goat anti mouse IgG (Jackson Immunresearch West Grove, Pa., USA) for 1 h at RT. After final washing, plates were incubated with phosphatase substrate (pNPP, Sigma-Aldrich, St Louis, Mo., USA) and read after 3 hours of incubation at 405 nm using an ELISA plate reader.

[2] = molecular target: T1, biotinylated Aβ17-40 peptide; test: ELISA, biotinylated peptide (Anaspec) on streptavidin plate, 10 µg/ml mAb
From the text: as §1

[3] = molecular target: T2, biotinylated Aβ1-40 peptide (biotinylated (position not given)); test: as above
T2 construct: Peptide from Anaspec; also called Ab1-40
From the text: as §1

Aβ1-42 library peptide 7 = test: peptide library ELISA, 10 µg/ml mAb
From the text: as §1

[4] = molecular target: Aβ1-42 library peptide 20; test: peptide library ELISA, 10 µg/ml mAb
From the text: as §1

[5] = molecular target: Aβ1-42 library peptide 33; test: peptide library ELISA, 10 µg/ml mAb
From the text: as §1

[6] = molecular target: Aβ1-42 library peptide 32; test: peptide library ELISA, 10 µg/ml mAb
From the text: as §1

Aβ1-42 library peptide 1 = test: peptide library ELISA, 10 µg/ml mAb
From the text: as §1

[7] = molecular target: Aβ1-42 library peptide 15; test: peptide library ELISA, 10 µg/ml mAb
From the text: as §1

[8] = molecular target: Aβ1-42 library peptide 13; test: peptide library ELISA, 10 µg/ml mAb
From the text: as §1

Aβ1-42 library peptide 4 = test: peptide library ELISA, 10 µg/ml mAb
From the text: as §1

[9] = molecular target: Aβ1-42 library peptide 18; test: peptide library ELISA, 10 µg/ml mAb
From the text: as §1

[10] = molecular target: Aβ1-42 library peptide 11; test: peptide library ELISA, 10 µg/ml mAb
From the text: as §1

[11] = molecular target: Aβ1-42 library peptide 21; test: peptide library ELISA, 10 µg/ml mAb
From the text: as §1

[12] = molecular target: Aβ1-42 library peptide 29; test: peptide library ELISA, 10 µg/ml mAb
From the text: as §1

Aβ1-42 library peptide 2 = test: peptide library ELISA, 10 µg/ml mAb
From the text: as §1

[13] = molecular target: Aβ1-42 library peptide 24; test: peptide library ELISA, 10 µg/ml mAb
From the text: as §1

[14] = molecular target: Aβ1-42 library peptide 14; test: peptide library ELISA, 10 µg/ml mAb
From the text: as §1

[15] = molecular target: Aβ1-42 library peptide 28; test: peptide library ELISA, 10 µg/ml mAb
From the text: as §1

[16] = molecular target: Aβ1-42 library peptide 19; test: peptide library ELISA, 10 µg/ml mAb
From the text: as §1

[17] = molecular target: Aβ1-42 library peptide 30; test: peptide library ELISA, 10 µg/ml mAb
From the text: as §1

[18] = molecular target: Aβ1-42 library peptide 27; test: peptide library ELISA, 10 µg/ml mAb
From the text: as §1

[19] = molecular target: Aβ1-42 library peptide 22; test: peptide library ELISA, 10 µg/ml mAb
From the text: as §1

Aβ1-42 library peptide 6 = test: peptide library ELISA, 10 µg/ml mAb
From the text: as §1

Aβ1-42 library peptide 3 = test: peptide library ELISA, 10 µg/ml mAb
From the text: as §1

[20] = molecular target: Aβ1-42 library peptide 31; test: peptide library ELISA, 10 µg/ml mAb
From the text: as §1

[21] = molecular target: Aβ1-42 library peptide 23; test: peptide library ELISA, 10 µg/ml mAb
From the text: as §1

Aβ1-42 library peptide 8 = test: peptide library ELISA, 10 µg/ml mAb
From the text: as §1

[22] = molecular target: Aβ1-42 library peptide 12; test: peptide library ELISA, 10 µg/ml mAb
From the text: as §1

Aβ1-42 library peptide 9 = test: peptide library ELISA, 10 µg/ml mAb
From the text: as §1

[23] = molecular target: Aβ1-42 library peptide 26; test: peptide library ELISA, 10 µg/ml mAb
From the text: as §1

[24] = molecular target: Aβ1-42 library peptide 25; test: peptide library ELISA, 10 µg/ml mAb
From the text: as §1

[25] = molecular target: Aβ1-42 library peptide 17; test: peptide library ELISA, 10 µg/ml mAb
From the text: as §1

Aβ1-42 library peptide 5 = test: peptide library ELISA, 10 µg/ml mAb
From the text: as §1

[26] = molecular target: Aβ1-42 library peptide 10; test: peptide library ELISA, 10 µg/ml mAb
From the text: as §1

[27] = molecular target: Aβ1-42 library peptide 16; test: peptide library ELISA, 10 µg/ml mAb
From the text: as §1

[28] = molecular target: Aβ1-42 peptide (Thioflavin T assay); test: cell-based or functional assay
Sequence of Aβ1-42 peptide (Thioflavin T assay) (peptide, as listed by the source): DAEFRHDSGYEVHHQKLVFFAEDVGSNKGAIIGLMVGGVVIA

[29] = molecular target: T3, biotinylated complete Aβ1-42 peptide (human sequence) (human, biotinylated (position not given)); test: peptide library ELISA, complete Aβ1-42 (Bachem) as positive control, 10 µg/ml mAb
T3 construct: Same peptide from two suppliers (1-42A Anaspec, 1-42B Bachem); the supplier is named under assay; also called Ab1-42; 1-42A (Anaspec)
T3 sequence (peptide, as listed by the source): as above
From the text: as §1

Row | Binder | O.D. after background subtraction (mean) [2] [O.D.] | O.D. after background subtraction (mean) [3] [O.D.] | O.D. (Aβ1-42 library peptide 7) [O.D.] | O.D. [4] [O.D.] | O.D. [5] [O.D.] | O.D. [6] [O.D.] | O.D. (Aβ1-42 library peptide 1) [O.D.] | O.D. [7] [O.D.] | O.D. [8] [O.D.] | O.D. (Aβ1-42 library peptide 4) [O.D.] | O.D. [9] [O.D.] | O.D. [10] [O.D.] | O.D. [11] [O.D.] | O.D. [12] [O.D.] | O.D. (Aβ1-42 library peptide 2) [O.D.] | O.D. [13] [O.D.] | O.D. [14] [O.D.] | O.D. [15] [O.D.] | O.D. [16] [O.D.] | O.D. [17] [O.D.] | further results
1 | B1 | 0.02 | 1.02 | 0.11 | 0.1 | 0.11 | 0.12 | 0.1 | 0.14 | 0.17 | 0.11 | 0.11 | 0.11 | 0.1 | 0.2 | 0.1 | 0.1 | 0.16 | 0.12 | 0.1 | 0.11 | binding result [1]: no binding (tested: 10 µg/ml); O.D. [18]: 0.13 O.D.; O.D. [19]: 0.1 O.D.; O.D. (Aβ1-42 library peptide 6): 0.11 O.D.; O.D. (Aβ1-42 library peptide 3): 0.12 O.D.; O.D. [20]: 0.12 O.D.; O.D. [21]: 0.11 O.D.; O.D. (Aβ1-42 library peptide 8): 0.11 O.D.; O.D. [22]: 0.24 O.D.; O.D. (Aβ1-42 library peptide 9): 0.11 O.D.; O.D. [23]: 0.12 O.D.; O.D. [24]: 0.11 O.D.; O.D. [25]: 0.13 O.D.; O.D. (Aβ1-42 library peptide 5): 0.11 O.D.; O.D. [26]: 0.13 O.D.; O.D. [27]: 0.14 O.D.; disaggregation of pre-aggregated Aβ1-42, Thioflavin T fluorescence, antibody to Aβ1-42 molar ratio 1:10 [28]: 52%; disaggregation of pre-aggregated Aβ1-42, Thioflavin T fluorescence, antibody to Aβ1-42 molar ratio 1:100 [28]: 22%; inhibition of Aβ1-42 aggregation, Thioflavin T fluorescence, antibody to Aβ1-42 molar ratio 1:10 [28]: 69%; inhibition of Aβ1-42 aggregation, Thioflavin T fluorescence, antibody to Aβ1-42 molar ratio 1:100 [28]: 34%
2 | B2 | -0.02 | 0.62 | 0.1 | 0.1 | 0.11 | 0.11 | 0.1 | 0.1 | 0.15 | 0.1 | 0.1 | 0.11 | 0.09 | 0.11 | 0.1 | 0.1 | 0.12 | 0.11 | 0.1 | 0.11 | O.D. [29]: 0.69 O.D.; O.D. [18]: 0.12 O.D.; O.D. [19]: 0.1 O.D.; O.D. (Aβ1-42 library peptide 6): 0.1 O.D.; O.D. (Aβ1-42 library peptide 3): 0.11 O.D.; O.D. [20]: 0.11 O.D.; O.D. [21]: 0.1 O.D.; O.D. (Aβ1-42 library peptide 8): 0.1 O.D.; O.D. [22]: 0.21 O.D.; O.D. (Aβ1-42 library peptide 9): 0.1 O.D.; O.D. [23]: 0.12 O.D.; O.D. [24]: 0.11 O.D.; O.D. [25]: 0.12 O.D.; O.D. (Aβ1-42 library peptide 5): 0.1 O.D.; O.D. [26]: 0.1 O.D.; O.D. [27]: 0.14 O.D.; disaggregation of pre-aggregated Aβ1-42, Thioflavin T fluorescence, antibody to Aβ1-42 molar ratio 1:10 [28]: 54%; disaggregation of pre-aggregated Aβ1-42, Thioflavin T fluorescence, antibody to Aβ1-42 molar ratio 1:100 [28]: 18%; inhibition of Aβ1-42 aggregation, Thioflavin T fluorescence, antibody to Aβ1-42 molar ratio 1:10 [28]: 66%; inhibition of Aβ1-42 aggregation, Thioflavin T fluorescence, antibody to Aβ1-42 molar ratio 1:100 [28]: 30%
